In article PMC8440770:

Target: spMSP1D1 (MSP1D1 with SpyCatcher at the N-terminus and SpyTag at the C-terminus, circularized)
Test: cross-linking + other: fluorescence fluctuation spectroscopy; spMSPs in PC lipid nanodiscs (cNDs); cross-linking: cNDs 0.5 µM in PBS with EGS, room temperature 1 h, SDS-PAGE; fluctuation spectroscopy: molecular brightness of FITC-labeled spMSPs and cNDs (100 pM) in reconstitution buffer by photon counting histogram

stoichiometry N: 2
Substance: spMSP1D1 (MSP1D1 with SpyCatcher at the N-terminus and SpyTag at the C-terminus, circularized)
